Laboratory results reported in patent US20150297672A1, “Alpha- and gamma-MSH analogues” (TXP Pharma GmbH, priority 2014, published 2015).
Each block holds one binder with its values, some of them ahead of it.

Biological target: human melanocortin receptor type 1 (MC1r) (human) (UniProt Q01726)
Test: cell-based or functional assay

Sequence of human melanocortin receptor type 1 (MC1r) (human) (Q01726 whole entry): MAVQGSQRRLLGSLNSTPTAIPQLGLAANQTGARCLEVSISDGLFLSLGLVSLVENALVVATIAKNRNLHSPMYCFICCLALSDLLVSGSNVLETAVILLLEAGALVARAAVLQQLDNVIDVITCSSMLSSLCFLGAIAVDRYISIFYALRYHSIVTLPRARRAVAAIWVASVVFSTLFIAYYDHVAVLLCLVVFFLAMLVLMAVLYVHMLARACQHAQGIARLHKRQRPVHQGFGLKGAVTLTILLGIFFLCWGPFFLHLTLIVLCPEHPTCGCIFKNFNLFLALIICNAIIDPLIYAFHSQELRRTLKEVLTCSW

EC50, cAMP production: 2.12 nM
Emax (max efficacy expressed as percent of αMSH), cAMP production: 72 % of αMSH
maximal efficacy (Emax), cAMP production: 3 nM
Binder: Ac-KKKKKKSYSMEHFRWGKPV-NH2

EC50, cAMP production: 1.35 nM
Emax (max efficacy expressed as percent of αMSH), cAMP production: 62 % of αMSH
B1: Ac(Lys)6-NDP-αMSH (Ac(Lys)6-Ser-Tyr-Ser-Nle Glu-His-(D-Phe)-Arg-Trp-Gly-Lys-Pro-Val-NH2) (peptide)
peptide: KKKKKKSYSXEHFRWGKPV
modifications: N-terminal acetyl; Nle (norleucine) at position 10 (written X); D-Phe at position 13; C-terminal amide
